This is an account of results in publication doi:10.1101/2023.04.03.535218, “Distributable, Metabolic PET Reporting of Tuberculosis” (bioRxiv, 2023).

As usually defined, the Km is the concentration of substrate that gives half-maximal velocity. By kcat is commonly meant the maximal rate divided by the concentration of active sites. Usually kcat/Km stands for the second-order rate constant that governs catalysis at low substrate concentration.

Substrate in data set [1]: O=P(O)(O)OC[C@H]1O[C@H](O[C@H]2O[C@H](CO)[C@@H](O)[C@H](O)[C@H]2O)[C@H](O)[C@@H](O)[C@@H]1O
The data set is described as follows: continuous 1H NMR assay. In kind it is biochemical, Escherichia coli. As to conditions: 37 °C. The source says: continuous 1H NMR assay on OtsB

Substrate in data set [2]: O=P(O)(O)OC[C@H]1O[C@H](O[C@H]2O[C@H](CO)[C@@H](O)[C@H](O)[C@H]2O)[C@H](O)[C@@H](O)[C@@H]1O
The data set is described as follows: table note: endpoint HPLC; Methods: malachite green assay. In kind it is biochemical, Escherichia coli. Conditions: method note of the table (HPLC, fixed Glc, 70 °C) does not fit this enzyme. The source says:
table note: endpoint HPLC; Methods: malachite green assay on OtsB^Sf

B1: OtsB (Escherichia coli K-12) (protein)
chain: MTEPLTETPELSAKYAWFFDLDGTLAEIKPHPDQVVVPDNILQGLQLLATASDGALALISGRSMVELDALAKPYRFPLAGVHGAERRDINGKTHIVHLPDAIARDISVQLHTVIAQYPGAELEAKGMAFALHYRQAPQHEDALMTLAQRITQIWPQMALQQGKCVVEIKPRGTSKGEAIAAFMQEAPFIGRTPVFLGDDLTDESGFAVVNRLGGMSVKIGTGATQASWRLAGVPDVWSWLEMITTALQQKRENNRSDDYESFSRSI
notes: expressed in E. coli
As to B1, in data set [1], the Km was determined as 3.6 ± 0.8 mM, the turnover number (kcat) was 286 ± 34 s⁻¹ and the kcat/Km was 79000 M⁻¹ s⁻¹.

B2: OtsB^Sf (Escherichia coli K-12) (protein)
chain: MTEPLTETPELSAKYAWFFDLDGTLAEIKPHPDQVVVPDNILQGLQLLATASDGALALISGRSMVELDALAKPYRFPLAGVHGAERRDINGKTHIVHLPDAIARDISVQLHTVIAQYPGAELEAKGMAFALHYRQAPQHEDALMTLAQRITQIWPQMALQQGKCVVEIKPRGTSKGEAIAAFMQEAPFIGRTPVFLGDDLTDESGFAVVNRLGGMSVKIGTGATQASWRLAGVPDVWSWLEMITTALQQKRENNRSDDYESFSRSI
notes: purified on Ni-NTA
B2: in data set [2], the Km was 2.8 ± 0.7 mM, the kcat was found to be 740 ± 96 s⁻¹ and the kcat/Km worked out at 264000 M⁻¹ s⁻¹.
